Legend:
HeLa Kyoto [1] = assay: solubility in G1/S (NP-40 vs SDS abundance) (log2 ratio); higher = more soluble; conditions: cell cycle stage: G1/S
HeLa Kyoto [2] = assay: melting temperature (median over replicates), in situ; higher = more thermally stable
HeLa Kyoto [3] = assay: solubility change mitosis vs G1/S (difference of NP-40 vs SDS log2 ratios) (log2 ratio difference); higher = more soluble in mitosis
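Throughout, for melting temperature (median over replicates), in situ: HeLa Kyoto cells synchronized by double thymidine or nocodazole block, proteins quantified by TMT10plex mass spectrometry, three independent biological replicates.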
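Throughout, for solubility change mitosis vs G1/S (difference of NP-40 vs SDS log2 ratios): synchronized HeLa Kyoto cells (double thymidine block for G1/S, nocodazole release for mitosis), protein amounts in NP-40 versus SDS lysates quantified by mass spectrometry, three biological replicates.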
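Throughout, for solubility in G1/S (NP-40 vs SDS abundance): HeLa Kyoto cells arrested at G1/S by double thymidine block, proteins quantified by TMT10plex mass spectrometry in mild NP-40 versus SDS extracts, three biological replicates.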

Sequence	solubility in G1/S (log2) (HeLa Kyoto [1])	melting temperature (HeLa Kyoto [2]; cell cycle stage: G1/S)	melting temperature (HeLa Kyoto [2]; cell cycle stage: mitosis)	solubility change mitosis (log2) (HeLa Kyoto [3])
MESGDEAAIERHRVHLRSATLRDAVPATLHLLPCEVAVDGPAPVGRFFTPAIRQGPEGLEVSFRGRCLRGEEVAVPPGLVGYVMVTEEKKVSMGKPDPLRDSGTDDQEEEPLERDFDRFIGATANFSRFTLWGLETIPGPDAKVRGALTWPSLAAAIHAQVPED [RNASEH2C]	0.236	50.7 °C	50.3 °C	-0.016
MEVHGKPKASPSCSSPTRDSSGVPVSKELLTAGSDGRGGIWDRLLINSQPKSRKTSTLQTVRIERSPLLDQVQTFLPQMARANEKLRKEMAAAPPGRFNIENIDGPHSKVIQMDVALFEMNQSDSKEVDSSEESSQDSSENSSESEDEDDSIPSEVTIDNIKLPNSEGGKGKIEVLDSPASKKKK [C12ORF45]	-0.302	52.9 °C	53.7 °C	0.0873
MFHGIPATPGIGAPGNKPELYEEVKLYKNAREREKYDNMAELFAVVKTMQALEKAYIKDCVSPSEYTAACSRLLVQYKAAFRQVQGSEISSIDEFCRKFRLDCPLAMERIKEDRPITIKDDKGNLNRCIADVVSLFITVMDKLRLEIRAMDEIQPDLRELMETMHRMSHLPPDFEGRQTVSQWLQTLSGMSASDELDDSQVRQMLFDLESAYNAFNRFLHA [VPS28]	0.19	51.5 °C	–	0.014
MGAPRSLLLALAAGLAVARPPNIVLIFADDLGYGDLGCYGHPSSTTPNLDQLAAGGLRFTDFYVPVSLCTPSRAALLTGRLPVRMGMYPGVLVPSSRGGLPLEEVTVAEVLAARGYLTGMAGKWHLGVGPEGAFLPPHQGFHRFLGIPYSHDQGPCQNLTCFPPATPCDGGCDQGLVPIPLLANLSVEAQPPWLPGLEARYMAFAHDLMADAQRQDRPFFLYYASHHTHYPQFSGQSFAERSGRGPFGDSLMELDAAVGTLMTAIGDLGLLEETLVIFTADNGPETMRMSRGGCSGLLRCGKGTTYEGGVREPALAFWPGHIAPGVTHELASSLDLLPTLAALAGAPLPNVTLDGFDLSPLLLGTGKSPRQSLFFYPSYPDEVRGVFAVRTGKYKAHFFTQGSAHSDTTADPACHASSSLTAHEPPLLYDLSKDPGENYNLLGGVAGATPEVLQALKQLQLLKAQLDAAVTFGPSQVARGEDPALQICCHPGCTPRPACCHCPDPHA [ARSA]	0.664	55.6 °C	55.6 °C	-0.0336
MGDEDDDESCAVELRITEANLTGHEEKVSVENFELLKVLGTGAYGKVFLVRKAGGHDAGKLYAMKVLRKAALVQRAKTQEHTRTERSVLELVRQAPFLVTLHYAFQTDAKLHLILDYVSGGEMFTHLYQRQYFKEAEVRVYGGEIVLALEHLHKLGIIYRDLKLENVLLDSEGHIVLTDFGLSKEFLTEEKERTFSFCGTIEYMAPEIIRSKTGHGKAVDWWSLGILLFELLTGASPFTLEGERNTQAEVSRRILKCSPPFPPRIGPVAQDLLQRLLCKDPKKRLGAGPQGAQEVRNHPFFQGLDWVALAARKIPAPFRPQIRSELDVGNFAEEFTRLEPVYSPPGSPPPGDPRIFQGYSFVAPSILFDHNNAVMTDGLEAPGAGDRPGRAAVARSAMMQDSPFFQQYELDLREPALGQGSFSVCRRCRQRQSGQEFAVKILSRRLEANTQREVAALRLCQSHPNVVNLHEVHHDQLHTYLVLELLRGGELLEHIRKKRHFSESEASQILRSLVSAVSFMHEEAGVVHRDLKPENILYADDTPGAPVKIIDFGFARLRPQSPGVPMQTPCFTLQYAAPELLAQQGYDESCDLWSLGVILYMMLSGQVPFQGASGQGGQSQAAEIMCKIREGRFSLDGEAWQGVSEEAKELVRGLLTVDPAKRLKLEGLRGSSWLQDGSARSSPPLRTPDVLESSGPAVRSGLNATFMAFNRGKREGFFLKSVENAPLAKRRKQKLRSATASRRGSPAPANPGRAPVASKGAPRRANGPLPPS [RPS6KA4]	-0.0622	46.6 °C	49.5 °C	-0.0849
MGEAGAGAGASGGPEASPEAEVVKLLPFLAPGARADLQAAAVRHVLALTGCGPGRALLAGQAALLQALMELAPASAPARDAARALVNLAADPGLHETLLAADPGLPARLMGRALDPQWPWAEEAAAALANLSREPAPCAALMAALAAAEPADSGLERLVRALCTPGYNARAPLHYLAPLLSNLSQRPAARAFLLDPDRCVVQRLLPLTQYPDSSVRRGGVVGTLRNCCFEHRHHEWLLGPEVDILPFLLLPLAGPEDFSEEEMERLPVDLQYLPPDKQREPDADIRKMLVEAIMLLTATAPGRQQVRDQGAYLILRELHSWEPEPDVRTACEKLIQVLIGDEPERGMENLLEVQVPEDVEQQLQQLDCREQEQLERELAPEPWVERATPT [HGH1]	0.131	48.7 °C	50.5 °C	0.156
MGKKHKKHKSDKHLYEEYVEKPLKLVLKVGGNEVTELSTGSSGHDSSLFEDKNDHDKHKDRKRKKRKKGEKQIPGEEKGRKRRRVKEDKKKRDRDRVENEAEKDLQCHAPVRLDLPPEKPLTSSLAKQEEVEQTPLQEALNQLMRQLQRKDPSAFFSFPVTDFIAPGYSMIIKHPMDFSTMKEKIKNNDYQSIEELKDNFKLMCTNAMIYNKPETIYYKAAKKLLHSGMKILSQERIQSLKQSIDFMADLQKTRKQKDGTDTSQSGEDGGCWQREREDSGDAEAHAFKSPSKENKKKDKDMLEDKFKSNNLEREQEQLDRIVKESGGKLTRRLVNSQCEFERRKPDGTTTLGLLHPVDPIVGEPGYCPVRLGMTTGRLQSGVNTLQGFKEDKRNKVTPVLYLNYGPYSSYAPHYDSTFANISKDDSDLIYSTYGEDSDLPSDFSIHEFLATCQDYPYVMADSLLDVLTKGGHSRTLQEMEMSLPEDEGHTRTLDTAKEMEITEVEPPGRLDSSTQDRLIALKAVTNFGVPVEVFDSEEAEIFQKKLDETTRLLRELQEAQNERLSTRPPPNMICLLGPSYREMHLAEQVTNNLKELAQQVTPGDIVSTYGVRKAMGISIPSPVMENNFVDLTEDTEEPKKTDVAECGPGGS [BRD7]	-0.49	46.7 °C	49.1 °C	0.315
MGPVRLGILLFLFLAVHEAWAGMLKEEDDDTERLPSKCEVCKLLSTELQAELSRTGRSREVLELGQVLDTGKRKRHVPYSVSETRLEEALENLCERILDYSVHAERKGSLRYAKGQSQTMATLKGLVQKGVKVDLGIPLELWDEPSVEVTYLKKQCETMLEEFEDIVGDWYFHHQEQPLQNFLCEGHVLPAAETACLQETWTGKEITDGEEKTEGEEEQEEEEEEEEEEGGDKMTKTGSHPKLDREDL [CNPY4]	0.0586	–	54.3 °C	0.223
MGWSQDLFRALWRSLSREVKEHVGTDQFGNKYYYIPQYKNWRGQTIREKRIVEAANKKEVDYEAGDIPTEWEAWIRRTRKTPPTMEEILKNEKHREEIKIKSQDFYEKEKLLSKETSEELLPPPVQTQIKGHASAPYFGKEEPSVAPSSTGKTFQPGSWMPRDGKSHNQ [NDUFAF2]	0.329	55.5 °C	52.2 °C	0.329
MIEDTMTLLSLLGRIMRYFLLRPETLFLLCISLALWSYFFHTDEVKTIVKSSRDAVKMVKGKVAEIMQNDRLGGLDVLEAEFSKTWEFKNHNVAVYSIQGRRDHMEDRFEVLTDLANKTHPSIFGIFDGHGGETAAEYVKSRLPEALKQHLQDYEKDKENSVLSYQTILEQQILSIDREMLEKLTVSYDEAGTTCLIALLSDKDLTVANVGDSRGVLCDKDGNAIPLSHDHKPYQLKERKRIKRAGGFISFNGSWRVQGILAMSRSLGDYPLKNLNVVIPDPDILTFDLDKLQPEFMILASDGLWDAFSNEEAVRFIKERLDEPHFGAKSIVLQSFYRGCPDNITVMVVKFRNSSKTEEQ [PPM1L]	-0.0862	–	53.9 °C	-0.142
MISQFFILSSKGDPLIYKDFRGDSGGRDVAELFYRKLTGLPGDESPVVMHHHGRHFIHIRHSGLYLVVTTSENVSPFSLLELLSRLATLLGDYCGSLGEGTISRNVALVYELLDEVLDYGYVQTTSTEMLRNFIQTEAVVSKPFSLFDLSSVGLFGAETQQSKVAPSSAASRPVLSSRSDQSQKNEVFLDVVERLSVLIASNGSLLKVDVQGEIRLKSFLPSGSEMRIGLTEEFCVGKSELRGYGPGIRVDEVSFHSSVNLDEFESHRILRLQPPQGELTVMRYQLSDDLPSPLPFRLFPSVQWDRGSGRLQVYLKLRCDLLSKSQALNVRLHLPLPRGVVSLSQELSSPEQKAELAEGALRWDLPRVQGGSQLSGLFQMDVPGPPGPPSHGLSTSASPLGLGPASLSFELPRHTCSGLQVRFLRLAFRPCGNANPHKWVRHLSHSDAYVIRI [AP4M1]	-0.0981	49.2 °C	–	-0.0241
MKAVKSERERGSRRRHRDGDVVLPAGVVVKQERLSPEVAPPAHRRPDHSGGSPSPPTSEPARSGHRGNRARGVSRSPPKKKNKASGRRSKSPRSKRNRSPHHSTVKVKQEREDHPRRGREDRQHREPSEQEHRRARNSDRDRHRGHSHQRRTSNERPGSGQGQGRDRDTQNLQAQEEEREFYNARRREHRQRNDVGGGGSESQELVPRPGGNNKEKEVPAKEKPSFELSGALLEDTNTFRGVVIKYSEPPEARIPKKRWRLYPFKNDEVLPVMYIHRQSAYLLGRHRRIADIPIDHPSCSKQHAVFQYRLVEYTRADGTVGRRVKPYIIDLGSGNGTFLNNKRIEPQRYYELKEKDVLKFGFSSREYVLLHESSDTSEIDRKDDEDEEEEEEVSDS [SNIP1]	-0.985	–	49.8 °C	0.493
MLPGLRRLLQAPASACLLLMLLALPLAAPSCPMLCTCYSSPPTVSCQANNFSSVPLSLPPSTQRLFLQNNLIRTLRPGTFGSNLLTLWLFSNNLSTIYPGTFRHLQALEELDLGDNRHLRSLEPDTFQGLERLQSLHLYRCQLSSLPGNIFRGLVSLQYLYLQENSLLHLQDDLFADLANLSHLFLHGNRLRLLTEHVFRGLGSLDRLLLHGNRLQGVHRAAFRGLSRLTILYLFNNSLASLPGEALADLPSLEFLRLNANPWACDCRARPLWAWFQRARVSSSDVTCATPPERQGRDLRALREADFQACPPAAPTRPGSRARGNSSSNHLYGVAEAGAPPADPSTLYRDLPAEDSRGRQGGDAPTEDDYWGGYGGEDQRGEQMCPGAACQAPPDSRGPALSAGLPSPLLCLLLLVPHHL [RTN4RL2]	0.0566	54 °C	53.7 °C	-0.00838
MNGEEEFFDAVTGFDSDNSSGEFSEANQKVTGMIDLDTSKNNRIGKTGERPSQENGIQKHRTSLPAPMFSRSDFSVWTILKKCVGLELSKITMPIAFNEPLSFLQRITEYMEHVYLIHRASCQPQPLERMQSVAAFAVSAVASQWERTGKPFNPLLGETYELIREDLGFRFISEQVSHHPPISAFHSEGLNHDFLFHGSIYPKLKFWGKSVEAEPRGTITLELLKHNEAYTWTNPTCCVHNVIIGKLWIEQYGTVEILNHRTGHKCVLHFKPCGLFGKELHKVEGHIQDKNKKKLFMIYGKWTECLWGIDPVSYESFKKQERRGDHLRKAKLDEDSGKADSDVADDVPVAQETVQVIPGSKLLWRINTRPPNSAQMYNFTSFTVSLNELETGMEKTLPPTDCRLRPDIRGMENGNMDLASQEKERLEEKQREARRERAKEEAEWQTRWFYPGNNPYTGTPDWLYAGDYFERNFSDCPDIY [OSBPL2]	-0.0421	48.1 °C	48.6 °C	-0.108

Reference: the supplement of paper PMC5998384
